Data taken from US20150368311A1 (Sanofi, published 2015).
Non-standard residues stand in square brackets, D forms with d. No end group written: not given here. Ala(4-thiazolyl) = N[C@@H](Cc1cscn1)C(=O)O; 1Nal = N[C@@H](Cc1cccc2ccccc12)C(=O)O; Phg = N[C@H](C(=O)O)c1ccccc1; Tle = CC(C)(C)[C@H](N)C(=O)O; Nle = CCCC[C@H](N)C(=O)O

B1: SEQ ID NO: 33 (peptide)
peptide: HSQGTFTSD[1Nal]SKQLESRRAQEFIEWLLATGPESGAPPPS-OH
modifications: N-terminus assumed
SMILES: CC[C@H](C)[C@H](NC(=O)[C@H](Cc1ccccc1)NC(=O)[C@H](CCC(=O)O)NC(=O)[C@H](CCC(N)=O)NC(=O)[C@H](C)NC(=O)[C@H](CCCNC(=N)N)NC(=O)[C@H](CCCNC(=N)N)NC(=O)[C@H](CO)NC(=O)[C@H](CCC(=O)O)NC(=O)[C@H](CC(C)C)NC(=O)[C@H](CCC(N)=O)NC(=O)[C@H](CCCCN)NC(=O)[C@H](CO)NC(=O)[C@H](Cc1cccc2ccccc12)NC(=O)[C@H](CC(=O)O)NC(=O)[C@H](CO)NC(=O)[C@@H](NC(=O)[C@H](Cc1ccccc1)NC(=O)[C@@H](NC(=O)CNC(=O)[C@H](CCC(N)=O)NC(=O)[C@H](CO)NC(=O)[C@@H](N)Cc1c[nH]cn1)[C@@H](C)O)[C@@H](C)O)C(=O)N[C@@H](CCC(=O)O)C(=O)N[C@@H](Cc1c[nH]c2ccccc12)C(=O)N[C@@H](CC(C)C)C(=O)N[C@@H](CC(C)C)C(=O)N[C@@H](C)C(=O)N[C@H](C(=O)NCC(=O)N1CCC[C@H]1C(=O)N[C@@H](CCC(=O)O)C(=O)N[C@@H](CO)C(=O)NCC(=O)N[C@@H](C)C(=O)N1CCC[C@H]1C(=O)N1CCC[C@H]1C(=O)N1CCC[C@H]1C(=O)N[C@@H](CO)C(=O)O)[C@@H](C)O
B2: SEQ ID NO: 32 (peptide)
peptide: HSQGTFTSD[Phg]SKQLESRRAQEFIEWLLATGPESGAPPPS-OH
modifications: N-terminus assumed
SMILES: CC[C@H](C)[C@H](NC(=O)[C@H](Cc1ccccc1)NC(=O)[C@H](CCC(=O)O)NC(=O)[C@H](CCC(N)=O)NC(=O)[C@H](C)NC(=O)[C@H](CCCNC(=N)N)NC(=O)[C@H](CCCNC(=N)N)NC(=O)[C@H](CO)NC(=O)[C@H](CCC(=O)O)NC(=O)[C@H](CC(C)C)NC(=O)[C@H](CCC(N)=O)NC(=O)[C@H](CCCCN)NC(=O)[C@H](CO)NC(=O)[C@@H](NC(=O)[C@H](CC(=O)O)NC(=O)[C@H](CO)NC(=O)[C@@H](NC(=O)[C@H](Cc1ccccc1)NC(=O)[C@@H](NC(=O)CNC(=O)[C@H](CCC(N)=O)NC(=O)[C@H](CO)NC(=O)[C@@H](N)Cc1c[nH]cn1)[C@@H](C)O)[C@@H](C)O)c1ccccc1)C(=O)N[C@@H](CCC(=O)O)C(=O)N[C@@H](Cc1c[nH]c2ccccc12)C(=O)N[C@@H](CC(C)C)C(=O)N[C@@H](CC(C)C)C(=O)N[C@@H](C)C(=O)N[C@H](C(=O)NCC(=O)N1CCC[C@H]1C(=O)N[C@@H](CCC(=O)O)C(=O)N[C@@H](CO)C(=O)NCC(=O)N[C@@H](C)C(=O)N1CCC[C@H]1C(=O)N1CCC[C@H]1C(=O)N1CCC[C@H]1C(=O)N[C@@H](CO)C(=O)O)[C@@H](C)O
B3: SEQ ID NO: 26 (peptide)
peptide: HSQGTFTSDLSKQ[Nle]ESRRAQDFIEWLLATGPESGAPPPS-OH
modifications: N-terminus assumed
SMILES: CCCC[C@H](NC(=O)[C@H](CCC(N)=O)NC(=O)[C@H](CCCCN)NC(=O)[C@H](CO)NC(=O)[C@H](CC(C)C)NC(=O)[C@H](CC(=O)O)NC(=O)[C@H](CO)NC(=O)[C@@H](NC(=O)[C@H](Cc1ccccc1)NC(=O)[C@@H](NC(=O)CNC(=O)[C@H](CCC(N)=O)NC(=O)[C@H](CO)NC(=O)[C@@H](N)Cc1c[nH]cn1)[C@@H](C)O)[C@@H](C)O)C(=O)N[C@@H](CCC(=O)O)C(=O)N[C@@H](CO)C(=O)N[C@@H](CCCNC(=N)N)C(=O)N[C@@H](CCCNC(=N)N)C(=O)N[C@@H](C)C(=O)N[C@@H](CCC(N)=O)C(=O)N[C@@H](CC(=O)O)C(=O)N[C@@H](Cc1ccccc1)C(=O)N[C@H](C(=O)N[C@@H](CCC(=O)O)C(=O)N[C@@H](Cc1c[nH]c2ccccc12)C(=O)N[C@@H](CC(C)C)C(=O)N[C@@H](CC(C)C)C(=O)N[C@@H](C)C(=O)N[C@H](C(=O)NCC(=O)N1CCC[C@H]1C(=O)N[C@@H](CCC(=O)O)C(=O)N[C@@H](CO)C(=O)NCC(=O)N[C@@H](C)C(=O)N1CCC[C@H]1C(=O)N1CCC[C@H]1C(=O)N1CCC[C@H]1C(=O)N[C@@H](CO)C(=O)O)[C@@H](C)O)[C@@H](C)CC
B4: SEQ ID NO: 25 (peptide)
peptide: [Ala(4-thiazolyl)]SQGTFTSD[Tle]SKQ[Nle]ESRRAQEFIEWLLATGPESGAPPPS-OH
modifications: N-terminus assumed
SMILES: CCCC[C@H](NC(=O)[C@H](CCC(N)=O)NC(=O)[C@H](CCCCN)NC(=O)[C@H](CO)NC(=O)[C@@H](NC(=O)[C@H](CC(=O)O)NC(=O)[C@H](CO)NC(=O)[C@@H](NC(=O)[C@H](Cc1ccccc1)NC(=O)[C@@H](NC(=O)CNC(=O)[C@H](CCC(N)=O)NC(=O)[C@H](CO)NC(=O)[C@@H](N)Cc1cscn1)[C@@H](C)O)[C@@H](C)O)C(C)(C)C)C(=O)N[C@@H](CCC(=O)O)C(=O)N[C@@H](CO)C(=O)N[C@@H](CCCNC(=N)N)C(=O)N[C@@H](CCCNC(=N)N)C(=O)N[C@@H](C)C(=O)N[C@@H](CCC(N)=O)C(=O)N[C@@H](CCC(=O)O)C(=O)N[C@@H](Cc1ccccc1)C(=O)N[C@H](C(=O)N[C@@H](CCC(=O)O)C(=O)N[C@@H](Cc1c[nH]c2ccccc12)C(=O)N[C@@H](CC(C)C)C(=O)N[C@@H](CC(C)C)C(=O)N[C@@H](C)C(=O)N[C@H](C(=O)NCC(=O)N1CCC[C@H]1C(=O)N[C@@H](CCC(=O)O)C(=O)N[C@@H](CO)C(=O)NCC(=O)N[C@@H](C)C(=O)N1CCC[C@H]1C(=O)N1CCC[C@H]1C(=O)N1CCC[C@H]1C(=O)N[C@@H](CO)C(=O)O)[C@@H](C)O)[C@@H](C)CC

Biological target: T1, human GLP-1 receptor (human, UniProt P43220 24-463)
Experiment: cell-based or functional assay

In order of falling “EC50 hGLP-1R, cAMP formation” value:
1. B2  18700 pM
2. B3  1240 pM
3. HSQGTFTSDVSKQLESRRAQEFIEWLLATGPESGAPPPS-OH [SEQ ID NO: 30]  1180 pM
4. HSQGTFTSDISKQLESRRAQEFIEWLLATGPESGAPPPS-OH [SEQ ID NO: 31]  941 pM
5. HSQGTFTSDLSKQLESRRAQDFIEWLLATGPESGAPPPS-OH [SEQ ID NO: 35]  934 pM
6. HSQGTFTSDLSKQLESRRAQEFIEWLLATGPESGAPPPS-OH [SEQ ID NO: 34]  363 pM
7. B1  159 pM
8. HSQGTFTSDYSKQLESRRAQEFIEWLLATGPESGAPPPS-OH [SEQ ID NO: 29]  145 pM
9. HSQGTFTSDLSKQLESRRAQEFIEWLLAGGPESGAPPPS-OH [SEQ ID NO: 27]  80.8 pM
10. HSQGTFTSDYSKQLESRRAQEFIEWLLAGGPESGAPPPS-OH [SEQ ID NO: 28]  52.4 pM

Biological target: T2, human glucagon receptor (human, UniProt P47871 26-477)
T2 sequence (P47871 26-477): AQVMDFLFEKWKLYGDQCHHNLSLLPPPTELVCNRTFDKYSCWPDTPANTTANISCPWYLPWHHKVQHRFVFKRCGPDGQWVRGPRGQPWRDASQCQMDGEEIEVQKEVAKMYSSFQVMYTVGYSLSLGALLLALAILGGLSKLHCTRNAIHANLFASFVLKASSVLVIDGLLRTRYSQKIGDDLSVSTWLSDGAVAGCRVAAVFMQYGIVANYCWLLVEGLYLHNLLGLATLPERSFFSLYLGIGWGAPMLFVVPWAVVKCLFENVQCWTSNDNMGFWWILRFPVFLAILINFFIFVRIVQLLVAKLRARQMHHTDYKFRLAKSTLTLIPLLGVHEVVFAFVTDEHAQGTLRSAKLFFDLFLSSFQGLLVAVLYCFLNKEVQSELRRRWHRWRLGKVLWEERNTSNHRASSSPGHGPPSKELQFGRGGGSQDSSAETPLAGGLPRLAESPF
Experiment: cell-based or functional assay

In order of falling “EC50 hGlucagon-R, cAMP formation” value:
1. B2  12 pM
2. B3  9.4 pM
3. HSQGTFTSDLSKQLESRRAQDFIEWLLATGPESGAPPPS-OH [SEQ ID NO: 35]  7.1 pM
4. HSQGTFTSDVSKQLESRRAQEFIEWLLATGPESGAPPPS-OH [SEQ ID NO: 30]  6.5 pM
5. HSQGTFTSDISKQLESRRAQEFIEWLLATGPESGAPPPS-OH [SEQ ID NO: 31]  4.1 pM
6. HSQGTFTSDLSKQLESRRAQEFIEWLLATGPESGAPPPS-OH [SEQ ID NO: 34]  1.4 pM
7. HSQGTFTSDLSKQLESRRAQEFIEWLLAGGPESGAPPPS-OH [SEQ ID NO: 27]  1.3 pM
8. B1  1.1 pM
9. HSQGTFTSDYSKQLESRRAQEFIEWLLAGGPESGAPPPS-OH [SEQ ID NO: 28]  1 pM
10. HSQGTFTSDYSKQLESRRAQEFIEWLLATGPESGAPPPS-OH [SEQ ID NO: 29]  0.9 pM

Biological target: T1, human GLP-1 receptor
Experiment: cell-based or functional assay
Remark: another data set of the same source

B4 was tested, and the “EC50 hGLP-1 R [pM], cAMP formation” value was 23100 pM.

Biological target: T2, human glucagon receptor
Experiment: cell-based or functional assay
Remark: another data set of the same source

With B4 the “EC50 hGLUC R [pM], cAMP formation” value was 0.8 pM.
